Source: patent EP4663762A2 (HongKong Bioheng Biotech Limited, dated 2025)

What was measured:
Test in all cases: flow cytometry, soluble tagged antigen staining T cells that carry the construct
[1] = biological target: T1, Human CTLA-4 / CD152 Protein, Fc Tag (ACRO) (human, UniProt P16410 36-161, limits assumed)
T1 construct: Bought reagent (ACRO); no catalogue number, no construct limits; not shown: Fc tag
T1 sequence (looked up): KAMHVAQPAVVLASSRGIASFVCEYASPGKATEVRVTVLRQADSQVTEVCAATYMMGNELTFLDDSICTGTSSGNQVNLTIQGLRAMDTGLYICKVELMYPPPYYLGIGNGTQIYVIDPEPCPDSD

[2] = biological target: T2, Human PD-1 / PDCD1 Protein, His Tag (ACRO) (human, UniProt Q15116 25-167)
T2 construct: Bought reagent (ACRO); no catalogue number, no construct limits; also called CD279; not shown: His tag

[3] = biological target: T3, Human LAG-3 / CD223 Protein, His Tag (ACRO) (human, UniProt P18627 23-450)
T3 construct: Bought reagent (ACRO); no catalogue number, no construct limits; not shown: His tag
T3 sequence (looked up): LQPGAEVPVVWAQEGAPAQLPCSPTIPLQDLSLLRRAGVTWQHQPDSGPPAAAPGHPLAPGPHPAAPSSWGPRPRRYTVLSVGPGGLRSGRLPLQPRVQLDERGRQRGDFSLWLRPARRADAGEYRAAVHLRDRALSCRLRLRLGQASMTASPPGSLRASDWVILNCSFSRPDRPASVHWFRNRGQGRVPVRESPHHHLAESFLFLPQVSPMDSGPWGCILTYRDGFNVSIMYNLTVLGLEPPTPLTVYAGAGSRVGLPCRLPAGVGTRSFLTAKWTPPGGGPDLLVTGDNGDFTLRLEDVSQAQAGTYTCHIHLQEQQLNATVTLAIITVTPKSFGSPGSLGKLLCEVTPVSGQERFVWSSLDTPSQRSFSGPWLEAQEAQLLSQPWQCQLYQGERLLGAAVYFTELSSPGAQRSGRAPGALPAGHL

[4] = biological target: T4, Human TIGIT Protein, Fc Tag (ACRO) (human, UniProt Q495A1 22-141)
T4 construct: Bought reagent (ACRO); no catalogue number, no construct limits; also called Human TIGIT Protein, Fc TagTIGIT; not shown: Fc tag
T4 sequence (looked up): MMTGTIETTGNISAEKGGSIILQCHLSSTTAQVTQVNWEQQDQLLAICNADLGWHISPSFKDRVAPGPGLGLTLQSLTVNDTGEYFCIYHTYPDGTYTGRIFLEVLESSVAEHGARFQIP

T2 sequence (Q15116 25-167 limits assumed): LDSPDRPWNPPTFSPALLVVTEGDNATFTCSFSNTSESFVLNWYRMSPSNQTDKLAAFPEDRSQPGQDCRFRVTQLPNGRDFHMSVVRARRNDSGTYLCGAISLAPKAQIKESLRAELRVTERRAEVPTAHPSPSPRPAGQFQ

Row | Binder | binding result [1] | binding result [2] | binding result [3] | further results
1 | immunosuppressive molecule of plasmid CAR19-PC4 (anti-PD1 scFv, linker, anti-CTLA4 scFv, IgG4 hinge, CD28 transmembrane region, CD28 co-stimulatory domain), on … (other, Membrane-anchored on transduced T cells that also express the anti-CD19 CAR) QVQLVQSGVEVKKPGASVKVSCKASGYTFTNYYMYWVRQAPGQGLEWMGGINPSNGGTNFNEKFKNRVTLTTDSSTTTAYMELKSLQFDDTAVYYCARRDYRFDMGFDYWGQGTTVTVSSGGGGSGGGGSGGGGSEIVLTQSPATLSLSPGERATLSCRASKGVSTSGYSYLHWYQQKPGQAPRLLIYLASYLESGVPARFSGSGSGTDFTLTISSLEPEDFAVYYCQHSRDLPLTFGGGTKVEIKGGGGSGGGGSGGGGSQVQLVESGGGVVQPGRSLRLSCAASGFTFSSYGMHWVRQAPGKGLEWVAVIWYDGSNKYYADSVKGRFTISRDNSKNTLYLQMNSLRAEDTAVFYCARAPNYIGAFDVWGQGTMVTVSSGGGGSGGGGSGGGGSDIQMTQSPSSLSASVGDRVTITCRASQGISSWLAWYQQKPEKAPKSLIYAASSLQSGVPSRFSGSGSGTDFTLTISSLQPEDFATYYCQQYNSYPPTFGQGTKVEIKESKYGPPCPPCPFWVLVVVGGVLACYSLLVTVAFIIFWVRSKRSRLLHSDYMNMTPRRPGPTRKHYQPYAPPRDFAAYRS | binds | binds |  | 
2 | immunosuppressive molecule of plasmid CAR19-AL3 (anti-NKG2A scFv, linker, anti-LAG3 scFv, IgG4 hinge, CD28 transmembrane region, CD28 co-stimulatory domain), … (other, Membrane-anchored on lentivirally transduced human T cells that also express the anti-CD19 CAR (separated by T2A)) EIVLTQSPATLSLSPGERATMTCSASSSVSSYIYWYQQKPGQAPRLLIYLTSNLASGIPARFSGSGSGTDFTLTISSLEPEDFATYYCQQWSGNPYTFGQGTKVEIKGSTSGSGKPGSGEGSTKGEVQLVESGGGLVKPGGSLRLSCAASGFTFSSYAMSWVRQAPGKGLEWVAEISSGGSYTYYPDSVKGRFTISRDNAKNSLYLQMNSLRAEDTAVYYCTRHGDYPRFFDVWGQGTLVTVSSGGGGSGGGGSGGGGSQVQLQQWGAGLLKPSETLSLTCAVYGGSFSDYYWNWIRQPPGKGLEWIGEINHRGSTNSNPSLKSRVTLSLDTSKNQFSLKLRSVTAADTAVYYCAFGYSDYEYNWFDPWGQGTLVTVSSGGGGSGGGGSGGGGSEIVLTQSPATLSLSPGERATLSCRASQSISSYLAWYQQKPGQAPRLLIYDASNRATGIPARFSGSGSGTDFTLTISSLEPEDFAVYYCQQRSNWPLTFGQGTNLEIKRESKYGPPCPPCPFWVLVVVGGVLACYSLLVTVAFIIFWVRSKRSRLLHSDYMNMTPRRPGPTRKHYQPYAPPRDFAAYRS |  |  | binds | 
3 | immunosuppressive molecule of plasmid CAR19-C4L3 (anti-CTLA4 scFv, linker, anti-LAG3 scFv, IgG4 hinge, CD28 transmembrane region, CD28 co-stimulatory domain), … (other, Membrane-anchored on transduced T cells that also express the anti-CD19 CAR) QVQLVESGGGVVQPGRSLRLSCAASGFTFSSYGMHWVRQAPGKGLEWVAVIWYDGSNKYYADSVKGRFTISRDNSKNTLYLQMNSLRAEDTAVFYCARAPNYIGAFDVWGQGTMVTVSSGGGGSGGGGSGGGGSDIQMTQSPSSLSASVGDRVTITCRASQGISSWLAWYQQKPEKAPKSLIYAASSLQSGVPSRFSGSGSGTDFTLTISSLQPEDFATYYCQQYNSYPPTFGQGTKVEIKGGGGSGGGGSGGGGSQVQLQQWGAGLLKPSETLSLTCAVYGGSFSDYYWNWIRQPPGKGLEWIGEINHRGSTNSNPSLKSRVTLSLDTSKNQFSLKLRSVTAADTAVYYCAFGYSDYEYNWFDPWGQGTLVTVSSGGGGSGGGGSGGGGSEIVLTQSPATLSLSPGERATLSCRASQSISSYLAWYQQKPGQAPRLLIYDASNRATGIPARFSGSGSGTDFTLTISSLEPEDFAVYYCQQRSNWPLTFGQGTNLEIKRESKYGPPCPPCPFWVLVVVGGVLACYSLLVTVAFIIFWVRSKRSRLLHSDYMNMTPRRPGPTRKHYQPYAPPRDFAAYRS | binds |  | binds | 
4 | immunosuppressive molecule of plasmid CAR19-ATT (anti-NKG2A scFv, linker, anti-TIGIT scFv, IgG4 hinge, CD28 transmembrane region, CD28 co-stimulatory domain), … (other, Membrane-anchored on transduced T cells that also express the anti-CD19 CAR) EIVLTQSPATLSLSPGERATMTCSASSSVSSYIYWYQQKPGQAPRLLIYLTSNLASGIPARFSGSGSGTDFTLTISSLEPEDFATYYCQQWSGNPYTFGQGTKVEIKGSTSGSGKPGSGEGSTKGEVQLVESGGGLVKPGGSLRLSCAASGFTFSSYAMSWVRQAPGKGLEWVAEISSGGSYTYYPDSVKGRFTISRDNAKNSLYLQMNSLRAEDTAVYYCTRHGDYPRFFDVWGQGTLVTVSSGGGGSGGGGSGGGGSEVQLQQSGPGLVKPSQTLSLTCAISGDSVSSNSAAWNWIRQSPSRGLEWLGKTYYRFKWYSDYAVSVKGRITINPDTSKNQFSLQLNSVTPEDTAVFYCTRESTTYDLLAGPFDYWGQGTLVTVSSGGGGSGGGGSGGGGSDIVMTQSPDSLAVSLGERATINCKSSQTVLYSSNNKKYLAWYQQKPGQPPNLLIYWASTRESGVPDRFSGSGSGTDFTLTISSLQAEDVAVYYCQQYYSTPFTFGPGTKVEIKRESKYGPPCPPCPFWVLVVVGGVLACYSLLVTVAFIIFWVRSKRSRLLHSDYMNMTPRRPGPTRKHYQPYAPPRDFAAYRS |  |  |  | binding result [4]: binds
5 | immunosuppressive molecule of plasmid CAR19-PT3 (anti-PD1 scFv, linker, anti-TIM3 scFv, IgG4 hinge, CD28 transmembrane region, CD28 co-stimulatory domain), on … (other, Membrane-anchored on transduced T cells that also express the anti-CD19 CAR) QVQLVQSGVEVKKPGASVKVSCKASGYTFTNYYMYWVRQAPGQGLEWMGGINPSNGGTNFNEKFKNRVTLTTDSSTTTAYMELKSLQFDDTAVYYCARRDYRFDMGFDYWGQGTTVTVSSGGGGSGGGGSGGGGSEIVLTQSPATLSLSPGERATLSCRASKGVSTSGYSYLHWYQQKPGQAPRLLIYLASYLESGVPARFSGSGSGTDFTLTISSLEPEDFAVYYCQHSRDLPLTFGGGTKVEIKGGGGSGGGGSGGGGSQVQLVQSGAEVKKPGSSVKVSCKASGYTFTSYNMHWVRQAPGQGLEWMGDIYPGNGDTSYNQKFKGRVTITADKSTSTVYMELSSLRSEDTAVYYCARVGGAFPMDYWGQGTTVTVSSGGGGSGGGGSGGGGSAIQLTQSPSSLSASVGDRVTITCRASESVEYYGTSLMQWYQQKPGKAPKLLIYAASNVESGVPSRFSGSGSGTDFTLTISSLQPEDFATYFCQQSRKDPSTFGGGTKVEIKESKYGPPCPPCPFWVLVVVGGVLACYSLLVTVAFIIFWVRSKRSRLLHSDYMNMTPRRPGPTRKHYQPYAPPRDFAAYRS |  | binds |  | 
6 | immunosuppressive molecule of plasmid CAR19-C4 (anti-CTLA4 scFv, IgG4 hinge, CD28 transmembrane region, CD28 co-stimulatory domain), on CAR19-C4 T cells (other, Membrane-anchored on transduced T cells that also express the anti-CD19 CAR) QVQLVESGGGVVQPGRSLRLSCAASGFTFSSYGMHWVRQAPGKGLEWVAVIWYDGSNKYYADSVKGRFTISRDNSKNTLYLQMNSLRAEDTAVFYCARAPNYIGAFDVWGQGTMVTVSSGGGGSGGGGSGGGGSDIQMTQSPSSLSASVGDRVTITCRASQGISSWLAWYQQKPEKAPKSLIYAASSLQSGVPSRFSGSGSGTDFTLTISSLQPEDFATYYCQQYNSYPPTFGQGTKVEIKESKYGPPCPPCPFWVLVVVGGVLACYSLLVTVAFIIFWVRSKRSRLLHSDYMNMTPRRPGPTRKHYQPYAPPRDFAAYRS | binds |  |  | 
7 | immunosuppressive molecule of plasmid CAR19-C4T3 (anti-CTLA4 scFv, linker, anti-TIM3 scFv, IgG4 hinge, CD28 transmembrane region, CD28 co-stimulatory domain), … (other, Membrane-anchored on transduced T cells that also express the anti-CD19 CAR) QVQLVESGGGVVQPGRSLRLSCAASGFTFSSYGMHWVRQAPGKGLEWVAVIWYDGSNKYYADSVKGRFTISRDNSKNTLYLQMNSLRAEDTAVFYCARAPNYIGAFDVWGQGTMVTVSSGGGGSGGGGSGGGGSDIQMTQSPSSLSASVGDRVTITCRASQGISSWLAWYQQKPEKAPKSLIYAASSLQSGVPSRFSGSGSGTDFTLTISSLQPEDFATYYCQQYNSYPPTFGQGTKVEIKGGGGSGGGGSGGGGSQVQLVQSGAEVKKPGSSVKVSCKASGYTFTSYNMHWVRQAPGQGLEWMGDIYPGNGDTSYNQKFKGRVTITADKSTSTVYMELSSLRSEDTAVYYCARVGGAFPMDYWGQGTTVTVSSGGGGSGGGGSGGGGSAIQLTQSPSSLSASVGDRVTITCRASESVEYYGTSLMQWYQQKPGKAPKLLIYAASNVESGVPSRFSGSGSGTDFTLTISSLQPEDFATYFCQQSRKDPSTFGGGTKVEIKESKYGPPCPPCPFWVLVVVGGVLACYSLLVTVAFIIFWVRSKRSRLLHSDYMNMTPRRPGPTRKHYQPYAPPRDFAAYRS | binds |  |  | 
8 | immunosuppressive molecule of plasmid CAR19-PL3 (anti-PD1 scFv, linker, anti-LAG3 scFv, IgG4 hinge, CD28 transmembrane region, CD28 co-stimulatory domain), on … (other, Membrane-anchored on transduced T cells that also express the anti-CD19 CAR) QVQLVQSGVEVKKPGASVKVSCKASGYTFTNYYMYWVRQAPGQGLEWMGGINPSNGGTNFNEKFKNRVTLTTDSSTTTAYMELKSLQFDDTAVYYCARRDYRFDMGFDYWGQGTTVTVSSGGGGSGGGGSGGGGSEIVLTQSPATLSLSPGERATLSCRASKGVSTSGYSYLHWYQQKPGQAPRLLIYLASYLESGVPARFSGSGSGTDFTLTISSLEPEDFAVYYCQHSRDLPLTFGGGTKVEIKGGGGSGGGGSGGGGSQVQLQQWGAGLLKPSETLSLTCAVYGGSFSDYYWNWIRQPPGKGLEWIGEINHRGSTNSNPSLKSRVTLSLDTSKNQFSLKLRSVTAADTAVYYCAFGYSDYEYNWFDPWGQGTLVTVSSGGGGSGGGGSGGGGSEIVLTQSPATLSLSPGERATLSCRASQSISSYLAWYQQKPGQAPRLLIYDASNRATGIPARFSGSGSGTDFTLTISSLEPEDFAVYYCQQRSNWPLTFGQGTNLEIKRESKYGPPCPPCPFWVLVVVGGVLACYSLLVTVAFIIFWVRSKRSRLLHSDYMNMTPRRPGPTRKHYQPYAPPRDFAAYRS |  | binds | binds | 
